One series can be described thus: In vivo half-life. As to conditions: due to a lower absorption rate in the skin.
Series [1] deals with SUM190PT cells and normal human differentiated keratinocytes. As to the kind of experiment: Internalization assay with pHAB dye conjugates, tumor cell line and keratinocytes. Format: cell-based. As to conditions: in vitro, in reference to HA22 mAb (Enfortumab). The protocol: FIG. 9: Differential internalization in tumor cell line and human keratinocytes. Detection by fluorescence Enfortumab (HA22), Ch-15A7.5 and Isotypic control mAbs were coupled to pHAB thiol reactive dye to reach dye antibody ratio comprised between 4.58 and 5.55. A dose range of each of these antibody dye conjugates (1.6 ng/ml-5 μg/mL) was incubated in duplicates with SUM190PT Nectin-4-expressing cell line (A) normal human differentiated (0.1 mM CaCl2) keratinocytes (B). Intracellular fluorescence was recorded after 24 hours with florescence microplate reader (ClarioStar). Reported are the fluorescence intensities in function of dye antibody conjugate concentration.
Ten thousand SUM190PT or human differentiated keratinocytes (0.1 mM CaCl2) were seeded in 96-wells plates and subsequently incubated for 24 hours at 37° C., with a dose range (1.6 ng/ml-1 μg/mL) of anti Nectin-4 mAbs and isotypic control conjugated with pHAB thiol reactive dye. Upon internalization and endo-lysosomal processing, the acidic environment causes the dye to fluoresce. Fluorescence intensity was monitored on a plate reader with an excitation at 532 nm and an emission at 560 nm.
The thiol reactive dye pHAB (Promega) was conjugated to cysteine of selected anti-Nectin-4 ThiomAb (D265C, L234A, L235A) antibodies using maleimide chemistry according to manufacturer's instructions. […]

For series [2] the test system is unchanged. It is filed as cell-based. The method, then: FIG. 10: Differential in vitro cytotoxic activity to tumor cells and normal differentiated human keratinocytes. […] Viability (MTT assay) after a 5-days incubation period is reported. EC50 values were determined by GraphPad Prism 9 software using non-linear curve fitting (4 parameters). […] Data shown is representative of 2 different Nectin-4 expressing tumor cell lines (SUM190PT and MDA-MB468) and 3 independent donors for human keratinocytes.
To analyze the in vitro cytotoxic activity of ADC, cell viability was assessed using the AlamarBlue staining protocol as recommended by the manufacturer (Biosource, CA, USA). The test incorporates a fluorescent oxidation-reduction indicator. Fluorescence intensity is proportional to cellular metabolic reduction. Experiments were done by incubating 3000 cells/well (SUM190PT or differentiated NHEK) in triplicate with serial dilutions of ADC at Day 0 in 96-wells plates. AlamarBlue was measured at Day 5 by incubating 1/10 volume of alamarBlue solution for 2 h at 37° C. and read at 595 nm (FLUOstar Optima, BMG Labtech).

Series [3] concerns the target T1, Nectin-4 expressed by tumors and Nectin-4 expressed by human keratinocytes (Homo sapiens, UniProt Q96NY8).
T1 construct: Cells or cell lines (10,000-50,000) expressing Nectin-4 (naturally or transfected); endogenous in cells; host or cells: SUM190/SUM190PT (also SUM149 in IHC), NHEK differentiated with 0.1 mM CaCl2, human skin sections
T1 sequence (Q96NY8 32-510): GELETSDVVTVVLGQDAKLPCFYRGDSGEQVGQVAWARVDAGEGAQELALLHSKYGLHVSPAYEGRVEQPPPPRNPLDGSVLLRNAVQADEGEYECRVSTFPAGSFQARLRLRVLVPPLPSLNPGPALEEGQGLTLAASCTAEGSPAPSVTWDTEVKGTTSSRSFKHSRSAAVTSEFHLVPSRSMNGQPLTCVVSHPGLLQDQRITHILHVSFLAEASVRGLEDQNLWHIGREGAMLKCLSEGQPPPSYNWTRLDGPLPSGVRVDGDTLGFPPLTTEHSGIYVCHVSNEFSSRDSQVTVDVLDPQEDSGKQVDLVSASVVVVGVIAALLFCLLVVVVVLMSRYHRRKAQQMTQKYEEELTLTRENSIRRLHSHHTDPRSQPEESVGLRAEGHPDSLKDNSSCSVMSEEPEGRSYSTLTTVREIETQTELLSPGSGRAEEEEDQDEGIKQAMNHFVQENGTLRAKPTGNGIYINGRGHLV
As to the kind of experiment: Differential binding to tumor cells and human keratinocytes. An excerpt:
FIG. 6: Differential binding to Nectin-4 expressed by tumor cell line and normal differentiated human keratinocytes. […] Cells were then stained with phycoerythrin conjugate goat anti human Fc antibody. Normalized mean fluorescence intensities are shown. Non-linear curve fitting (4 parameters) was done with GraphPad Prism 9 software. Horizontal bar is placed at 50% of maximum staining intensity obtained with HA22 antibody on SUM190 cells.
FIG. 7: Differential binding to Nectin-4 expressed by tumor cell line and normal differentiated human keratinocytes. Detection by flow cytometry. • Flow cytometry analysis of TNBC cell line (SUM190, A) and normal differentiated (0.1 mM CaCl2) human keratinocytes (NHEK, B) using 5 μg/mL of HA22 (Enfortumab), Ch-5A12.2, Ch-15A7.5, and Ch-8F06. Cells were then stained with phycoerythrin conjugate goat anti human Fc antibody. Normalized mean fluorescence intensities are shown.
FIG. 8: Differential binding to Nectin-4 expressed by tumor cell line and human keratinocytes. Detection by immuno-histochemistry. Cryo-preserved OCT-embedded blocks of high expressing levels of Nectin-4 tumor cell line (SUM190), low expressing levels of Nectin-4 tumor cell line (SUM149), human and cynomolgus skin were processed for staining with 15A7.5 mAb (A) and 9A2.7 mAb (B). Quick score reported for each mAb are shown (A, B). C, ratio of quick score SUM190 over human skin. […]
Remaining blocks were stored at −80° C. until further use. […] Several dilution of each mAb were tested to optimize noise to signal ratio and 0.5 μg/ml of mouse 15A7.5 mAb and 10 µg/mL of mouse 9A2.7 mAb were determined as optimal. […] Both the stained cells proportion and the staining intensity were evaluated for each field. […] Scoring procedure was as follows: (i) The proportion of cells stained positively was estimated and a score from 0 to 4 was be assigned for each field (0=0-5%; 1=5-25%; 2=25-50%; 3=50-75%; and 4=75-100%); and (ii) The staining intensity was scored as 0, 1, 2, or 3 corresponding to the presence of negative, weak, intermediate, and strong brown staining, respectively. […]

B1: mAb 15A7.5: parental monoclonal anti-Nectin-4 antibody, CDRs SEQ ID NO: 1-12, VH/VL SEQ ID NO: 13/14 (antibody, V domains shown)
VH: EVKLVESGGGLVQPGGSRKLSCAASGFTFSNYGMAWVRQAPGKGPEWVAFISNLAYGINYADTVTGRFTISRENAKNTLYLEMRSLRSEDTAMYYCARGARATGWFAYWGQGTLVTVSA
VL: DIVMTQSQKFMSTSIGDRVSVTCKASQNVDTHVAWYQEKPGQSPKALIYSASYRYSGVPDRFTGSGSGTDFTLTISNVQSEDLADYFCQQYNSYPLTFGGGTKLEIK
modifications: VH_15A7.5; VK_15A7.5
For the molecule B1, in the series “In vivo half-life”, the half-life entry is “higher half-life”. The “internalization towards keratinocytes in comparison to tumor cells” value in series [1] was “lower”. In addition, the “cytotoxic activity towards keratinocytes in comparison to tumor cells” value in series [2] was “lower”. Moreover, the “affinity to Nectin-4 expressed by tumors in comparison to Nectin-4 expressed by human keratinocytes” value in series [3] (in vitro differentiated Nectin-4 expressing keratinocytes) is listed as “higher affinity”. The “binding affinity towards keratinocytes in comparison to tumor cells” value in series [3] (in vitro, in reference to HA22 mAb (Enfortumab)) was “lower binding affinity”.
